Reference: patent publication US20040054131A1

Target: FGF receptor (FGFR) on Swiss 3T3 cells
Assay: cell-based or functional assay

EC50 of mitogenesis (BrdU incorporation) in Swiss 3T3 cells with 15 U/ml heparin: 0.14 nM
Substance: basic FGF (ligand)
